This is an account of results in the supplement of paper PMC5998384.

For data set [1], the system named is HeLa Kyoto. Briefly: melting temperature (median over replicates), in situ; higher = more thermally stable.
Data set [2] has as its system HeLa Kyoto. The data set can be described thus: solubility in G1/S (NP-40 vs SDS abundance) (log2 ratio); higher = more soluble. To be noted: cell cycle stage: G1/S.
Data set [3] deals with HeLa Kyoto. Briefly: thermal stability score vs G1/S (z-score of summed log2 fold changes over temperatures); higher = more thermally stable than in G1/S.
Data set [4] has as its system HeLa Kyoto. The data set can be described thus: solubility change mitosis vs G1/S (difference of NP-40 vs SDS log2 ratios) (log2 ratio difference); higher = more soluble in mitosis.
[5] abbreviates: cell cycle stage: early G1 (4.5 h after nocodazole release).
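Wherever melting temperature (median over replicates), in situ is given: HeLa Kyoto cells synchronized by double thymidine or nocodazole block, proteins quantified by TMT10plex mass spectrometry, three independent biological replicates.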
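Wherever solubility change mitosis vs G1/S (difference of NP-40 vs SDS log2 ratios) is given: synchronized HeLa Kyoto cells (double thymidine block for G1/S, nocodazole release for mitosis), protein amounts in NP-40 versus SDS lysates quantified by mass spectrometry, three biological replicates.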
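Wherever solubility in G1/S (NP-40 vs SDS abundance) is given: HeLa Kyoto cells arrested at G1/S by double thymidine block, proteins quantified by TMT10plex mass spectrometry in mild NP-40 versus SDS extracts, three biological replicates.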
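Wherever thermal stability score vs G1/S (z-score of summed log2 fold changes over temperatures) is given: synchronized HeLa Kyoto cells, proteins quantified by TMT10plex mass spectrometry, three biological replicates, mitosis taken 0.5 h after nocodazole release, G1/S directly after double thymidine block.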

As to “MEAVKTFNSELYSLNDYKPPISKAKMTQITKAAIKAIKFYKHVVQSVEKFIQKCKPEYKVPGLYVIDSIVRQSRHQFGQEKDVFAPRFSNNIISTFQNLYRCPGDDKSKIVRVLNLWQKNNVFKSEIIQPLLDMAAGIPPPVVTPVLASTTTAMSNTPGTPVTPVTPANVVQGLPDPWVSQITNTDTLAAVAQILQSPQGQQLQQLIQTLQIQQQKPQPSILQALDAGLVVQLQALTAQLTAAAAAANTLTPLEQGVSFNKKLMDRFDFGEDSEHSEEPKKEIPASQLSHVSESVNNSIFHQIAEQLQQQNLEHLRQQLLEQQQPQKATPQDSQEGTFGSEHSASPSQGSSQQHFLEPEVNLDDSIDIQQQDMDIDEGQDGVEEEVFEQEAKKVAVRSRSRTHSRSRSRSPRKRRSRSRSGSRKRKHRKRSRSRSRERKRKSSRSYSSERRAREREKERQKKGLPPIRSKTLSVCSTTLWVGQVDKKATQQDLTNLFEEFGQIESINMIPPRGCAYVCMVHRQDAFRALQKLSSGSYKIGSKVIKIAWALNKGVKTEYKQFWDVDLGVTYIPWEKVKVDDLEGFAEGGMIDQETVNTEWETVKSSEPVKETVQTTQSPTPVEKETVVTTQAEVFPPPVAMLQIPVAPAVPTVSLVPPAFPVSMPVPPPGFSPIPPPPFLRASFNPSQPPPGFMPPPVPPPVVPPPTIPPVVPTSLVQPSLSMTPETVKDVGFGSLVIPGGSVASNLATSALPAGNVFNAPTKQAEPEEKVPHLIDHQISSGENTRSVIPNDISSNAAILGGQPPNVTSNSGILGVQRPNVSSNSEILGVRPSNVSSSSGIIAAQPPNILNNSGILGIQPPSVSNSSGLLGVLPPNIPNNSGLVGVQPPNVPNTPGLLGTQPPAGPQNLPPLSIPNQRMPTMPMLDIRPGLIPQAPGPRFPLIQPGIPPQRGIPPPSVLDSALHPPPRGPFPPGDIFSQPERPFLAPGRQSVDNVTNPEKRIPLGNDNIQQEGDRDYRFPPIETRESISRPPPVDVRDVVGRPIDPREGPGRPPLDGRDHFGRPPVDIRENLVRPGIDHLGRRDHFGFNPEKPWGHRGDFDEREHRVLPVYGGPKGLHEERGRFRSGNYRFDPRSGPWNRGFGQEVHRDFDDRRRPWERQRDRDDRDFDFCREMNGNRLGRDRIQNTWVPPPHARVFDYFEGATSQRKGDNVPQVNGENTERHAQPPPIPVQNDPELYEKLTSSNEINKEKSDTVADIESEPVVESTETEGT [SCAF8]”, the melting temperature in data set [1] (cell cycle stage: G1/S) was 48.6 °C; in data set [1] (cell cycle stage: mitosis) it was 49.3 °C. The “solubility in G1/S (log2)” value in data set [2] was -0.11. Further, the thermal stability score in data set [3] (setting [5]) worked out at 0.536; in data set [3] (cell cycle stage: mitosis) it was 0.448. Also, the “solubility change mitosis (log2)” value in data set [4] was -0.0284.

Take “MEDDAPVIYGLEFQARALTPQTAETDAIRFLVGTQSLKYDNQIHIIDFDDENNIINKNVLLHQAGEIWHISASPADRGVLTTCYNRTSDSKVLTCAAVWRMPKELESGSHESPDDSSSTAQTLELLCHLDNTAHGNMACVVWEPMGDGKKIISLADNHILLWDLQESSSQAVLASSASLEGKGQLKFTSGRWSPHHNCTQVATANDTTLRGWDTRSMSQIYCIENAHGQLVRDLDFNPNKQYYLASCGDDCKVKFWDTRNVTEPVKTLEEHSHWVWNVRYNHSHDQLVLTGSSDSRVILSNMVSISSEPFGHLVDDDDISDQEDHRSEEKSKEPLQDNVIATYEEHEDSVYAVDWSSADPWLFASLSYDGRLVINRVPRALKYHILL [TSSC1]”: the melting temperature in data set [1] (cell cycle stage: G1/S) was determined as 51.9 °C; in data set [1] (cell cycle stage: mitosis), 52.9 °C. Besides, the “solubility in G1/S (log2)” value in data set [2] came out at 0.0334. Besides, the thermal stability score was -0.291 in data set [3] (setting [5]) and -0.357 in data set [3] (cell cycle stage: mitosis). Moreover, in data set [4], the “solubility change mitosis (log2)” value was -0.21.
